The source of these data is paper PMC7954794, “Protein context shapes the specificity of SH3 domain-mediated interactions in vivo” (Nature Communications, 2021).

Holding throughout (type): cell-based, Saccharomyces cerevisiae
In experiment [1] the test system is SH3-deleted bait proteins (1xFLAG). Description: Western blot expression level of SH3-deleted baits (Fig. S1F-G). Particulars: Western blot Flag signal, 1xFLAG-tagged WT or SH3-deleted bait; sheet FigS1F-G. On the procedure:
Precultures of yeast cells expressing baits fused with the DHFR F[1,2]-FLAG were grown overnight at 30 °C with agitation in synthetic complete medium. The next day, cells were expanded in synthetic complete medium to reach their exponential phase (OD600 of around 1.0), pelleted, and frozen at −80 °C. The equivalent of fifty OD600 of cells was resuspended in ice-cold yeast lysis buffer (10 mM Tris-HCl pH 7.4, 150 mM NaCl, 0.5 mM EDTA (Millipore Sigma), 1% Triton X-100 (Millipore Sigma), and one cOmplete Mini Protease Inhibitor Cocktail (Millipore Sigma) per 10 mL) with […] glass beads (Millipore Sigma) and disrupted at 4 °C by 10 cycles of 2 min vortexing and 2 min cooldown. The equivalent of […] of lysed cells was used for the immunoprecipitation of the bait proteins using FLAG-M2 agarose beads (Millipore Sigma). The beads were incubated with the cell lysates for 120 min at 4 °C with a slow rotation, followed by three washes with the yeast lysis buffer.
Protein extracts and affinity-purified baits from yeast and human lysed cells were migrated on 10% polyacrylamide gels. The separated proteins were then transferred to nitrocellulose membranes. Validation of correct protein loading was done with ponceau staining of the membranes. Before the primary antibody incubations, membranes were blocked in 5% milk. Protein signals were detected on an Amersham Imager 600RGB (GE Healthcare) following the incubation of the membranes with the appropriate HRP-conjugated secondary antibodies and the Clarity Western ECL Substrate (Bio-Rad). The antibodies used in this study are M2-HRP (A8592, Sigma, 1/50,000), rabbit anti-FLAG (F7425, Sigma, 1/1000), PAK (SC-881, Santa Cruz, 1/200), p130cas/BCAR1 (SC-860, Santa Cruz, 1/200), actin (Cell Signaling Technology, 1/2000), anti-mouse HRP (Cell Signaling Technology, 1/10,000) and anti-rabbit HRP (Cell Signaling Technology, 1/10,000). The quantification of the WB signals was performed with the Amersham Imager 600 analysis software (GE Healthcare).

Another experiment deals with ABP1. The experiment in a line: DHFR-PCA on solid medium, bait ABP1 (Fig. 1B). The following applies: bait ABP1, label = prey; for medrep (log2 median colony size normalized to plate background, PCA score): 2-4 replicates; for Ratio (SH3-deleted/WT medrep): only significant differences showed, PPIs completely lost have a ratio of 0.1 and the gained PPIs 2.5. From the text:
(§1) Supplement 41467_2021_21873_MOESM8_ESM.xlsx, sheet "Fig1B" | column: medsize; medrep; Ratio; Score

The next experiment concerns BUD14. The experiment in a line: DHFR-PCA on solid medium, bait BUD14 (Fig. 1B). The following applies: bait BUD14, label = prey; 4 replicates.
Text: as §1

Another experiment deals with BEM1-2. The experiment in a line: DHFR-PCA on solid medium, bait BEM1-2 (Fig. 1B). Particulars: bait BEM1-2, label = prey; for medrep (log2 median colony size normalized to plate background, PCA score): 2-8 replicates.
Text: as §1

In another experiment the test system is BEM1-1. Description: DHFR-PCA on solid medium, bait BEM1-1 (Fig. 1B). Particulars: bait BEM1-1, label = prey; for medrep (log2 median colony size normalized to plate background, PCA score): 2-8 replicates.
Text: as §1

Experiment [2] concerns 575 putative partners (preys) of 22 WT SH3-containing proteins. Description: DHFR-PCA on solid medium, WT and SH3-deleted baits (Fig. 1B). Also noted: key to Score: 0: SH3-independent; 1: SH3-dependent PPIs; 2: SH3-inhibited PPIs. Particulars: for medrep (log2 median colony size normalized to plate background, PCA score): label = prey. An outline of the steps:
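In S. cerevisiae, 22 SH3-containing baits fused genomically to DHFR F[1,2], either WT or with each SH3 replaced via CRISPR by a poly-Gly/Ser linker, screened against 575 DHFR F[3] preys plus 40 negative controls in 1536 arrays, preys duplicated at randomized positions.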

A further experiment deals with BBC1. Description: DHFR-PCA on solid medium, bait BBC1 (Fig. 1B). Particulars: bait BBC1, label = prey; for medrep (log2 median colony size normalized to plate background, PCA score): 2-4 replicates.
Text: as §1

The next experiment deals with BOI2. The experiment in a line: DHFR-PCA on solid medium, bait BOI2 (Fig. 1B). The following applies: bait BOI2, label = prey; 3-8 replicates.
Text: as §1

The test system of a further experiment is BOI1. The experiment in a line: DHFR-PCA on solid medium, bait BOI1 (Fig. 1B). Particulars: bait BOI1, label = prey; 3-8 replicates.
Text: as §1

Where [3] appears, read: only significant differences showed, PPIs completely lost have a ratio of 0.1 and the gained PPIs 2.5.
[4] abbreviates: bait SLA1-3, DHFR-PCA, Replicates 4 (2 for YCR009C, YDR388W, YIL033C).

B1: Boi2 WT (protein, UniProt P39969 1-1040, looked up)
BEM1-interacting protein 2: MSNDREVPTLSQLNTTVSRDKDVSDTLSPDFDSKGSATGRDGGNFPMYIAINEYFKRMEDELDMKPGDKIKVITDDEEYKDGWYFGRNLRTNEEGLYPVVFTQKITVEKAPTLMRAKSTKRIYSPLTNEDPLLSSTFISENDSNSELPTPQPIETAASISRTANGKIERNLSLKNTMSDIDNALLEFKDDSIGPPDRFINSGRDEEHSITHETILSATDGLDVVESNSKPTTSSSTGFLNGDLENQATLINGIDTTKLNPVEAEFWSPEEITAYFIMEGYDVQSASRFQKHKISGKILLELELVHLKELDINSFGTRFEIFKEIEKIKEAIRTNGRSLNRASKTNNANIYNQLMPPANVDQRASYRGHVRKTSQSLEDLPSQQNFIPTPRNTRNSSASKHRPKSLVFDSQEANANIAPDVQIPQVVEEMAGNENLFVSPRRAPKPPSYPSPAQPPKSPLLNNTRTSPSPAQLYSWQSPTLSFSGPKRTSYIDQYSSSDSNFNSRSALPKNNQGGGKALSPIPSPTRNSVRNEDSEGKLTSSSKRNSVPYYGYAPESSSDRKSSCSSHEEEQFQETMNTFERPTSSIYADGSTIASISNDKLAHEKEGKKKPTRHSSSLSSKSKSDSRRNSSLKRSSSASRTSSFKKSSFMLSPFRQQFTDNAARSSSPEENPITSMPSEKNSSPIVDKKSSKKSRSKRRSVSAKEAEIFTETVKDDKNKRSASEAIKGETLKGKSLRQMTARPVAKKKQTSAFIEGLRSISVKEAMKDADFSGWMSKKGSGAMSTWKTRFFTLHGTRLSYFSSTTDTRERGLIDITAHRVVPAKEDDKLVSLYAASTGKGRYCFKLLPPQPGSKKGLTFTQPRTHYFAVDNKEEMRGWMAALIKTTIDIDTSVPIISSYTTPTVSLSKAQEMLAEAREETKLREQQMLENEEDEDQFLWDQQQLQQQQHDNNQGQADRTISASTQRTSDEDNTISTPNLSSANNTTIGSNGFSSPFLLASGLLSPGVARNSSMRGTEKKGKFSTEEDYFGDNSKHKTDKI
Molecule B1 yielded a Flag in [1] of 12024.

B2: YCR030C (protein, UniProt P25623 1-870, looked up)
Suppressor of yeast profilin …: MTEQRTKYADSILTTKSPYEATETIRIRLSQVKLLNKDFYLLFKELANLKRNYAQQLRKIIAENEDITKILNAQMIESNVLTPQEMSAFRFNSLGELRNVWDTVIEELKSDLKSSTEYYNTLDQQVVRELKESVENNTSWRESKDLHSKLSKNAASIEHYSKNNENSSHLEEARRQWDQQSPYLFELFETIDYNRLDTLKNCMLRFQTSFSDYLLNTTKECETVMTKFLAFEPQSEIDRFAKDASQYNFQLSSSSKEVVPNNASPASATGARPVSVSNGAANTEREKKSPQKDKRKSAFGNIGHRLASASSSLTHNDLMNNEFSDSTNNSSLKSKKSSHTLRSKVGSIFGRNKTKNKRQQQSSSNSHIQASITETPNNSSTRVSSTATSSIYQKQRRPTYSSSKSNNWTPGEASDTPPLPPHATPKNVDAPVTADTPPAQTFTPSEVPPSTPQQSSPPTAKEPDSSNLPKTVPISISQPPLQPQSKTKPLPVEPASPSISLPTATVDNQPSGQVDSRPLHIRAPALPPSRKQNFIHNRDSQLYDSLPNHGSGATPTSSSLSSIPQERPVSTLSSQITGELRELNPQATGSSTSLVGQSLFQHSSLDTSQFGLNASIAEVLNASFKDGMLQNSQLIGEIALNYLPNSVMNSPLPIGINLRINNGAKFEKVILNQAFIERVAPEEFKVNPSFIDSRTLGAIKYSIKEPIAPIVIHPVWRFESHQASVVLTVKMSPSLPDEISQIVIEDLVVFVNIDGANATSALSKPQGSFSKEKKRITWRFKEPVVLTRNGEGQRLIARFITDGLAHESAKGVITKFTISETDNVALPHSGAGSGITLTCQELDENNPFGGEWLDVNTKRTLTTGNYHGLA
Regarding B2, the “medrep (log2 median colony size normalized to plate background, PCA score)” value is given as 2.201 with ABP1; 2.234 in the experiment on BUD14; 2.035 with BEM1-2; 2.035 in the experiment on BEM1-1; 3.1776 in [2] (bait SLA1-2, DHFR-PCA, Replicates 4 (2 for YCR009C, YDR388W)); 3.1776 in experiment [2] (setting [4]). In addition, the “Ratio (SH3-deleted/WT medrep)” value was 0.1 in the experiment with BEM1-2 (setting [3]); 0.1 with BEM1-1 (setting [3]); 0.1 in experiment [2] (bait SLA1-2, label = prey, only significant differences shown, PPIs completely lost have a ratio of 0.1, gained PPIs 2.5). In addition, the Score in experiment [2] (bait SLA1-2, label = prey) was found to be 1; in experiment [2] (bait SLA1-3, label = prey) it was 0.

B3: YKL117W (protein, UniProt P28707 2-216, looked up)
Co-chaperone protein SBA1: SDKVINPQVAWAQRSSTTDPERNYVLITVSIADCDAPELTIKPSYIELKAQSKPHVGDENVHHYQLHIDLYKEIIPEKTMHKVANGQHYFLKLYKKDLESEYWPRLTKEKVKYPYIKTDFDKWVDEDEQDEVEAEGNDAAQGMDFSQMMGGAGGAGGAGGMDFSQMMGGAGGAGSPDMAQLQQLLAQSGGNLDMGDFKENDEEDEEEEIEPEVKA
Take B3: the “medrep (log2 median colony size normalized to plate background, PCA score)” value with ABP1 was determined as 3.786; with BUD14 it was 3.847; in the experiment with BBC1, 1.6151; in experiment [2] (setting [4]), 4.6716. The “Ratio (SH3-deleted/WT medrep)” value in the experiment on ABP1 came out at 1.319; in the experiment with BBC1 (setting [3]) it was 0.1. In addition, in experiment [2] (bait SLA1-3, label = prey), the Score was found to be 0.

B4: Pin3 WT (protein, UniProt Q06449 2-215, looked up)
[PSI+] inducibility protein 3: SASLINRSLTNIRTELDFLKGSNVISNDVYDQINKSLPAKWDPANAPRNASPASLEYVEALYQFDPQQDGDLGLKPGDKVQLLEKLSPEWYKGSCNGRTGIFPANYVKPAFSGSNGPSNLPPPPQYKAQELQQIPTQNSAASSYQQQPFPPPSTNYYQQPQQQPQQAPPPQQQQQQQQHQSSHSHLKSFGSKLGNAAIFGAGASIGSDIVNNIF
The molecule B4 yielded a Flag in [1] of 304553.

B5: YLR332W (protein, UniProt P36027 26-376, looked up)
Cell wall integrity sensor …: QFFVQSSSSNSSAVSTARSSVSRVSSSSSILSSSMVSSSSADSSSLTSSTSSRSLVSHTSSSTSIASISFTSFSFSSDSSTSSSSSASSDSSSSSSFSISSTSATSESSTSSTQTSTSSSSSLSSTPSSSSSPSTITSAPSTSSTPSTTAYNQGSTITSIINGKTILSNHYTTVTYTPSATADSSNKSKSSGLSKKNRNIVIGCVVGIGVPLILVILALIYMFCIQSSRTDFIDSDGKVVTAYRANKFTKWWYMLLGKKVSDEYHSDSPLGGSASSAGGLDLDEADDVMEQSSLFDVRIRDSDSVLPNANTADHNNTNSGGEPINSSVASNDIIEEKFYDEQGNELSPRNY
For the molecule B5, the “medrep (log2 median colony size normalized to plate background, PCA score)” value in the experiment on ABP1 is reported as 3.345; in the experiment with BOI2, 4.169; with BUD14 it was 1.439; in the experiment with BEM1-2 it was 4.445; in the experiment with BEM1-1, 4.445; with BBC1, 4.7031. Moreover, the “medrep (log2 median colony size normalized to plate background, PCA score)” value in the experiment on BOI1 turned out to be 3.534. In addition, the “Ratio (SH3-deleted/WT medrep)” value with ABP1 is given as 1.326.

B6: Nbp2 WT (protein, UniProt Q12163 1-236, looked up)
NAP1-binding protein 2: MATMETTTQKDTNILKSGLKKTIGVLNEAVLQNGREVEAVQAGNSDTMEDTETTTIGYISIKDYAYADSNPLHYGYFDGDNEEDEMVSDSSNGEDTYNKRQSITLPDDYIVNQRAVALYDFEPENDNELRLAEGDIVFISYKHGQGWLVAENESGSKTGLVPEEFVSYIQPEDGENEVENKARPFYLTHLITQSVSPKNNIDNTNEDEYDDNDEWEDIDDVAEVEADMKTKLDISD
For B6, the Flag in [1] was 158710.
